Substrate: N#Cc1c[nH]c2nc(N)[nH]c(=O)c12
Assay: steady-state kinetics, fluorescence assay of product NADP+
Format: biochemical, Bacillus subtilis
Conditions: co-substrate NADPH

B1: B. subtilis QueF (Bacillus subtilis subsp. subtilis str. 168; E98Q) (protein)
chain: MTTRKESELEGVTLLGNQGTNYLFEYAPDVLESFPNKHVNRDYFVKFNCPEFTSLCPKTGQPDFATIYISYIPDEKMVESKSLKLYLFSFRNHGDFHQDCMNIIMNDLIELMDPRYIEVWGKFTPRGGISIDPYTNYGKPGTKYEKMAEYRMMNHDLYPETIDNR
notes: queF gene in pET-30Xa, expressed in E. coli BL21(DE3); ~160 amino acids, single T-fold domain, homodecamer; active sites at intersubunit interfaces
B1 gave a Km of 67 µM and a kcat of 0.0006 s⁻¹.

— paper PMC5372742, “Protection of the Queuosine Biosynthesis Enzyme QueF from Irreversible Oxidation by a Conserved Intramolecular Disulfide” (Biomolecules, 2017)
